Patent publication US20210032299A1 (Eli Lilly, published 2021)
Starred links: 1 amine or outer side, 2 acyl side, 3 side chain; linkers in the order of their positions; H or OH if unused. Non-standard residues stand in square brackets, D forms with d. Groups on a side chain read outwards from the residue. No end group written: not given here. *: point of attachment. C20 diacid = O=C(O)CCCCCCCCCCCCCCCCCCC(=O)*; γGlu = O=C(O)[C@H](CCC(=O)[*:2])N[*:1]; 4Pal = N[C@@H](Cc1ccncc1)C(=O)O; αMeL = CC(C)C[C@](C)(N)C(=O)O; AEEA = NCCOCCOCC(=O)O; Aib = CC(C)(N)C(=O)O

T1: human glucose-dependent insulinotropic peptide receptor (human, UniProt P48546 22-466)
T1 sequence (looked up): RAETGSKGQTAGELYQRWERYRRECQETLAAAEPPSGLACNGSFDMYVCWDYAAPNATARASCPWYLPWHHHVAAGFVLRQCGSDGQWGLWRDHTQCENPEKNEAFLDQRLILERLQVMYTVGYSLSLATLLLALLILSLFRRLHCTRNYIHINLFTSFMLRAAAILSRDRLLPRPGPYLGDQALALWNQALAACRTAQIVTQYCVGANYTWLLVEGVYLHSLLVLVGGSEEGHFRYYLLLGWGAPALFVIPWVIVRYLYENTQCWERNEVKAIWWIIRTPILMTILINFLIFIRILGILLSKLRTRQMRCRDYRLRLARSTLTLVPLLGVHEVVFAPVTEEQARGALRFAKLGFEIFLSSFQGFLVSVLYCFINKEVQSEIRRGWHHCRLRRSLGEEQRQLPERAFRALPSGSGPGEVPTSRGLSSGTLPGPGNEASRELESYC

B1: Example 69 (peptide)
peptide: Y[Aib]EGTFISDYSI[αMeL]LDKK([AEEA-AEEA-γGlu-C20 diacid])HQ[Aib]DFVEYLLEGGPSSGAPPPS-NH2
modifications: N-terminus assumed
SMILES: CC[C@H](C)[C@H](NC(=O)[C@H](Cc1ccccc1)NC(=O)[C@@H](NC(=O)CNC(=O)[C@H](CCC(=O)O)NC(=O)C(C)(C)NC(=O)[C@@H](N)Cc1ccc(O)cc1)[C@@H](C)O)C(=O)N[C@@H](CO)C(=O)N[C@@H](CC(=O)O)C(=O)N[C@@H](Cc1ccc(O)cc1)C(=O)N[C@@H](CO)C(=O)N[C@H](C(=O)N[C@@](C)(CC(C)C)C(=O)N[C@@H](CC(C)C)C(=O)N[C@@H](CC(=O)O)C(=O)N[C@@H](CCCCN)C(=O)N[C@@H](CCCCNC(=O)COCCOCCNC(=O)COCCOCCNC(=O)CC[C@H](NC(=O)CCCCCCCCCCCCCCCCCCC(=O)O)C(=O)O)C(=O)N[C@@H](Cc1c[nH]cn1)C(=O)N[C@@H](CCC(N)=O)C(=O)NC(C)(C)C(=O)N[C@@H](CC(=O)O)C(=O)N[C@@H](Cc1ccccc1)C(=O)N[C@H](C(=O)N[C@@H](CCC(=O)O)C(=O)N[C@@H](Cc1ccc(O)cc1)C(=O)N[C@@H](CC(C)C)C(=O)N[C@@H](CC(C)C)C(=O)N[C@@H](CCC(=O)O)C(=O)NCC(=O)NCC(=O)N1CCC[C@H]1C(=O)N[C@@H](CO)C(=O)N[C@@H](CO)C(=O)NCC(=O)N[C@@H](C)C(=O)N1CCC[C@H]1C(=O)N1CCC[C@H]1C(=O)N1CCC[C@H]1C(=O)N[C@@H](CO)C(N)=O)C(C)C)[C@@H](C)CC
B2: Example 71 (peptide)
peptide: Y[Aib]EGTFISDYSI[αMeL]LDKK([AEEA-AEEA-γGlu-C20 diacid])HQ[Aib]DFVEWLLETGPSSGAPPPS-NH2
modifications: N-terminus assumed
SMILES: CC[C@H](C)[C@H](NC(=O)[C@H](Cc1ccccc1)NC(=O)[C@@H](NC(=O)CNC(=O)[C@H](CCC(=O)O)NC(=O)C(C)(C)NC(=O)[C@@H](N)Cc1ccc(O)cc1)[C@@H](C)O)C(=O)N[C@@H](CO)C(=O)N[C@@H](CC(=O)O)C(=O)N[C@@H](Cc1ccc(O)cc1)C(=O)N[C@@H](CO)C(=O)N[C@H](C(=O)N[C@@](C)(CC(C)C)C(=O)N[C@@H](CC(C)C)C(=O)N[C@@H](CC(=O)O)C(=O)N[C@@H](CCCCN)C(=O)N[C@@H](CCCCNC(=O)COCCOCCNC(=O)COCCOCCNC(=O)CC[C@H](NC(=O)CCCCCCCCCCCCCCCCCCC(=O)O)C(=O)O)C(=O)N[C@@H](Cc1c[nH]cn1)C(=O)N[C@@H](CCC(N)=O)C(=O)NC(C)(C)C(=O)N[C@@H](CC(=O)O)C(=O)N[C@@H](Cc1ccccc1)C(=O)N[C@H](C(=O)N[C@@H](CCC(=O)O)C(=O)N[C@@H](Cc1c[nH]c2ccccc12)C(=O)N[C@@H](CC(C)C)C(=O)N[C@@H](CC(C)C)C(=O)N[C@@H](CCC(=O)O)C(=O)N[C@H](C(=O)NCC(=O)N1CCC[C@H]1C(=O)N[C@@H](CO)C(=O)N[C@@H](CO)C(=O)NCC(=O)N[C@@H](C)C(=O)N1CCC[C@H]1C(=O)N1CCC[C@H]1C(=O)N1CCC[C@H]1C(=O)N[C@@H](CO)C(N)=O)[C@@H](C)O)C(C)C)[C@@H](C)CC
B3: Example 70 (peptide)
peptide: Y[Aib]EGTFISDYSI[αMeL]LDKK([AEEA-AEEA-γGlu-C20 diacid])HQ[Aib]DFVE[4Pal]LLATGPSSGAPPPS-NH2
modifications: N-terminus assumed
SMILES: CC[C@H](C)[C@H](NC(=O)[C@H](Cc1ccccc1)NC(=O)[C@@H](NC(=O)CNC(=O)[C@H](CCC(=O)O)NC(=O)C(C)(C)NC(=O)[C@@H](N)Cc1ccc(O)cc1)[C@@H](C)O)C(=O)N[C@@H](CO)C(=O)N[C@@H](CC(=O)O)C(=O)N[C@@H](Cc1ccc(O)cc1)C(=O)N[C@@H](CO)C(=O)N[C@H](C(=O)N[C@@](C)(CC(C)C)C(=O)N[C@@H](CC(C)C)C(=O)N[C@@H](CC(=O)O)C(=O)N[C@@H](CCCCN)C(=O)N[C@@H](CCCCNC(=O)COCCOCCNC(=O)COCCOCCNC(=O)CC[C@H](NC(=O)CCCCCCCCCCCCCCCCCCC(=O)O)C(=O)O)C(=O)N[C@@H](Cc1c[nH]cn1)C(=O)N[C@@H](CCC(N)=O)C(=O)NC(C)(C)C(=O)N[C@@H](CC(=O)O)C(=O)N[C@@H](Cc1ccccc1)C(=O)N[C@H](C(=O)N[C@@H](CCC(=O)O)C(=O)N[C@@H](Cc1ccncc1)C(=O)N[C@@H](CC(C)C)C(=O)N[C@@H](CC(C)C)C(=O)N[C@@H](C)C(=O)N[C@H](C(=O)NCC(=O)N1CCC[C@H]1C(=O)N[C@@H](CO)C(=O)N[C@@H](CO)C(=O)NCC(=O)N[C@@H](C)C(=O)N1CCC[C@H]1C(=O)N1CCC[C@H]1C(=O)N1CCC[C@H]1C(=O)N[C@@H](CO)C(N)=O)[C@@H](C)O)C(C)C)[C@@H](C)CC
B4: Example 68 (peptide)
peptide: Y[Aib]EGTFISDYSI[αMeL]LDKK([AEEA-AEEA-γGlu-C20 diacid])HQ[Aib]DFVEYLLEAGPSSGAPPPS-NH2
modifications: N-terminus assumed
SMILES: CC[C@H](C)[C@H](NC(=O)[C@H](Cc1ccccc1)NC(=O)[C@@H](NC(=O)CNC(=O)[C@H](CCC(=O)O)NC(=O)C(C)(C)NC(=O)[C@@H](N)Cc1ccc(O)cc1)[C@@H](C)O)C(=O)N[C@@H](CO)C(=O)N[C@@H](CC(=O)O)C(=O)N[C@@H](Cc1ccc(O)cc1)C(=O)N[C@@H](CO)C(=O)N[C@H](C(=O)N[C@@](C)(CC(C)C)C(=O)N[C@@H](CC(C)C)C(=O)N[C@@H](CC(=O)O)C(=O)N[C@@H](CCCCN)C(=O)N[C@@H](CCCCNC(=O)COCCOCCNC(=O)COCCOCCNC(=O)CC[C@H](NC(=O)CCCCCCCCCCCCCCCCCCC(=O)O)C(=O)O)C(=O)N[C@@H](Cc1c[nH]cn1)C(=O)N[C@@H](CCC(N)=O)C(=O)NC(C)(C)C(=O)N[C@@H](CC(=O)O)C(=O)N[C@@H](Cc1ccccc1)C(=O)N[C@H](C(=O)N[C@@H](CCC(=O)O)C(=O)N[C@@H](Cc1ccc(O)cc1)C(=O)N[C@@H](CC(C)C)C(=O)N[C@@H](CC(C)C)C(=O)N[C@@H](CCC(=O)O)C(=O)N[C@@H](C)C(=O)NCC(=O)N1CCC[C@H]1C(=O)N[C@@H](CO)C(=O)N[C@@H](CO)C(=O)NCC(=O)N[C@@H](C)C(=O)N1CCC[C@H]1C(=O)N1CCC[C@H]1C(=O)N1CCC[C@H]1C(=O)N[C@@H](CO)C(N)=O)C(C)C)[C@@H](C)CC
B5: Example 67 (peptide)
peptide: Y[Aib]EGTFISDYSI[αMeL]LDKK([AEEA-AEEA-γGlu-C20 diacid])HQ[Aib]DFVEYLLEQGPSSGAPPPS-NH2
modifications: N-terminus assumed
SMILES: CC[C@H](C)[C@H](NC(=O)[C@H](Cc1ccccc1)NC(=O)[C@@H](NC(=O)CNC(=O)[C@H](CCC(=O)O)NC(=O)C(C)(C)NC(=O)[C@@H](N)Cc1ccc(O)cc1)[C@@H](C)O)C(=O)N[C@@H](CO)C(=O)N[C@@H](CC(=O)O)C(=O)N[C@@H](Cc1ccc(O)cc1)C(=O)N[C@@H](CO)C(=O)N[C@H](C(=O)N[C@@](C)(CC(C)C)C(=O)N[C@@H](CC(C)C)C(=O)N[C@@H](CC(=O)O)C(=O)N[C@@H](CCCCN)C(=O)N[C@@H](CCCCNC(=O)COCCOCCNC(=O)COCCOCCNC(=O)CC[C@H](NC(=O)CCCCCCCCCCCCCCCCCCC(=O)O)C(=O)O)C(=O)N[C@@H](Cc1c[nH]cn1)C(=O)N[C@@H](CCC(N)=O)C(=O)NC(C)(C)C(=O)N[C@@H](CC(=O)O)C(=O)N[C@@H](Cc1ccccc1)C(=O)N[C@H](C(=O)N[C@@H](CCC(=O)O)C(=O)N[C@@H](Cc1ccc(O)cc1)C(=O)N[C@@H](CC(C)C)C(=O)N[C@@H](CC(C)C)C(=O)N[C@@H](CCC(=O)O)C(=O)N[C@@H](CCC(N)=O)C(=O)NCC(=O)N1CCC[C@H]1C(=O)N[C@@H](CO)C(=O)N[C@@H](CO)C(=O)NCC(=O)N[C@@H](C)C(=O)N1CCC[C@H]1C(=O)N1CCC[C@H]1C(=O)N1CCC[C@H]1C(=O)N[C@@H](CO)C(N)=O)C(C)C)[C@@H](C)CC

Each binder was assayed against human glucagon receptor (human, UniProt P47871 26-477) (assay: cell-based or functional assay).
human glucagon receptor, sequence (P47871 26-477): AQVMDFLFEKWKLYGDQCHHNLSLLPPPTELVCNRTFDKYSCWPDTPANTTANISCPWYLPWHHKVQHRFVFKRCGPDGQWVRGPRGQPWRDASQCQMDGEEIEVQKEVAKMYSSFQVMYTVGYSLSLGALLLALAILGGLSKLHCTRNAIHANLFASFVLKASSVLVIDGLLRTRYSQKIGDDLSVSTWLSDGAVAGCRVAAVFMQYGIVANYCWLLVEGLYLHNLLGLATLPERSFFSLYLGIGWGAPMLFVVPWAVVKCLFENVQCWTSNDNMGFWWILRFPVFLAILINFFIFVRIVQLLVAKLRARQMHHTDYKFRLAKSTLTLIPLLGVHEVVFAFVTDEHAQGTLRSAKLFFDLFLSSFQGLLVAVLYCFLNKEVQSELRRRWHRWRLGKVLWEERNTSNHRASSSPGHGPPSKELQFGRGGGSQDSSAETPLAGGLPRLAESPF
With B1 the “hGcgR cAMP Rel EC50” value was 0.803 µM.
In the case of B2, the “hGcgR cAMP Rel EC50” value is reported as 0.581 µM.
B3 was tested, and the “hGcgR cAMP Rel EC50” value was 3.56 µM.
B4 was tested, and the “hGcgR cAMP Rel EC50” value was 3.03 µM.
For B5, the “hGcgR cAMP Rel EC50” value was greater than 5 µM.

What follows are binders tested against T1, human glucose-dependent insulinotropic … (assay: cell-based or functional assay).
In the case of B1, the “hGIPR cAMP Rel EC50” value is reported as 0.0302 nM.
With B2 the “hGIPR cAMP Rel EC50” value was 0.0721 nM.
With B3 the “hGIPR cAMP Rel EC50” value was 0.0254 nM.
With B4 the “hGIPR cAMP Rel EC50” value was 0.0768 nM.
With B5 the “hGIPR cAMP Rel EC50” value was 0.0627 nM.

What follows are binders tested against human GLP-1 receptor (human, UniProt P43220 24-463) (assay: cell-based or functional assay).
B1 was tested, and the “hGLP1R cAMP Rel EC50” value was greater than 5 µM.
With B2 the “hGLP1R cAMP Rel EC50” value was greater than 5 µM.
With B3 the “hGLP1R cAMP Rel EC50” value was greater than 5 µM.
B4 was tested, and the “hGLP1R cAMP Rel EC50” value was greater than 5 µM.
In the case of B5, the “hGLP1R cAMP Rel EC50” value is reported as greater than 5 µM.
